Source: PMC11245307, “Evolutionary adaptation of an HP1-protein chromodomain integrates chromatin and DNA sequence signals” (eLife, 2024)
Numbering of substitutions follows the chain as printed. Ends that are not written are not given here. Me3 = trimethyl (on lysine, trimethyl-lysine)

What was measured:
Experiment in all cases: ITC; chromodomain at 100 µM, H3K9me3 peptide at approximately 1 mM; 20 mM Tris, pH 8.0, 25 mM NaCl, 2 mM β-mercaptoethanol; 20°C; MicroCal iTC200, sixteen 2.5 µl injections
Conditions in all cases: both partners purified
[1] = target: T1, Rhino chromodomain G31D (Rhino residues 20-90) (D. melanogaster, UniProt Q7JXA8 20-90, G31D)
T1 construct: Rhino (HP1d), D. melanogaster, chromodomain construct spanning residues 20-90, with G31D; also called Rhino^G31D chromodomain; source: E. coli BL21-CodonPlus (DE3)-RIPL, purified (Ni-NTA, Ulp1 cleavage, ion exchange, Superdex75); not shown: His6, N-terminal, cleaved; SUMO, N-terminal, cleaved
T1 sequence (looked up): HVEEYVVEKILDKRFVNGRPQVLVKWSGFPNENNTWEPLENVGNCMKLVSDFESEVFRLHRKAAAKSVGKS

[2] = target: T2, Rhino chromodomain G31A (Rhino residues 20-90) (D. melanogaster, UniProt Q7JXA8 20-90, G31A)
T2 construct: Rhino (HP1d), D. melanogaster, chromodomain construct spanning residues 20-90, with G31A; also called G31A mutant; source: E. coli BL21-CodonPlus (DE3)-RIPL, purified (Ni-NTA, Ulp1 cleavage, ion exchange, Superdex75); not shown: His6, N-terminal, cleaved; SUMO, N-terminal, cleaved
T2 sequence (looked up): T1 sequence (looked up) with D12A

[3] = target: T3, Rhino chromodomain, wildtype construct (Rhino residues 20-90) (D. melanogaster, UniProt Q7JXA8 20-90)
T3 construct: Rhino (HP1d), D. melanogaster, chromodomain construct spanning residues 20-90; Expressed as His6-SUMO-RhinoCD in pET-28; the tag was removed with Ulp1 protease; also called RhinoCD; wildtype domain; source: E. coli BL21-CodonPlus (DE3)-RIPL, purified (Ni-NTA, Ulp1 cleavage, ion exchange, Superdex75); not shown: His6, N-terminal, cleaved; SUMO, N-terminal, cleaved
T3 sequence (looked up): T1 sequence (looked up) with D12G

Kd [1]: 31.1 ± 3.2 µM
Kd [2]: 43.5 ± 8.6 µM
Kd [3]: 30.9 ± 3 µM
B1: H3K9me3 peptide (KQTAR-K[me3]-STGGK) (peptide)
peptide: KQTARK(Me3)STGGK
notes: histone H3 N-terminal tail, K4 to K14 with K9 trimethylated; also called H3K9me3-modified histone tail peptide; synthetic H3K9me3 peptides; source: synthetic peptide; bought: AnaSpec, Inc
